# Source: the domain aggregation screens of Martell et al. (2025)
# Assay: soluble fraction after stress (log2 fold change); higher = more stays soluble; pooled small domains, quantitative proteomics
# Settings: stress: pH 4
# In short: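 Values are log2 fold changes, and higher ones mean more of the domain stayed soluble. Each fold change reflects the soluble amount of a domain after acid stress and is taken as a measure of aggregation propensity. The stress was pH 4, applied to pooled custom libraries of small protein domains analysed by high-throughput quantitative proteomics.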
row,Sequence,soluble fraction (log2)
1,HMDMQNIQKGLSAIEPGRTFSREEYYAAIQNGSEMLLKEDALAYSLRKSLSDGDIVRVSWNQYAIP,-0.909
2,HMDMTPEEFLAWARHKPFGDPFPKTQTVTFLVPLLGVSRTNIFTWISGKVNPSKTSLLLMEALKRENR,-0.444
3,HMDNEIEQIVEDLNLTLSSLKYTKNQIESILPLIIKEIDDFKKKEKNISFENLLKLAMNHLDND,-1.16
4,HMDNEIRIPLPSLQRDGFSIGTREDDGSQLVRIMSAGSFGGMIRSFRLPEGMRIEGAKWEGEIVSIRL,-0.0291
5,HMDNEVTIAVQVNGKLRDKLIVALDTPNEKIEQLALALPKVIQNTSGLTVRKVIVIPNRLVNIVA,0.123
6,HMDNIKRGEMFYISRGGASYSGSEQHSDRPAVVVSNDKNNENSNVVEVVYMTTQPKTDLPTHVTVR,-0.0773
7,HMDNLKELDEILETYGKKKGYLITILQKAQDAYGYISIDIMNRISEFTGIKVAKIYGVATFYAQFRL,-0.651
8,HMDNPLSQQEKRILQLISLGKTNQEIADILYLSNGTVRNYISSILNKLSANNRVEAARIAEEHGW,-0.929
9,HMDNPNVMAQVKSLLASKGLSEQEVKERLKAKGLNIDAMSDAEIAQNRSVIEQTIAELEAEKKKAG,0.287
10,HMDNPYEVFIPNSYIGQRLDQTLASLFPQFSRSRLQNWLASGNLLVNGKIVKPKTKILGGEQINILDPYN,0.17
11,HMDNTFEEVKEKLLDLLKERPLTPAEVSKRMEEDKNILAQVIQYLLEEEIIKTEDGMLSKVIG,-0.0649
12,HMDNWYIAFNSFLSQNKLTAKNVSELTGLSKPTIDSYKQGKRKPTDENMQIIKDKLGFNISEILYN,-0.576
13,HMDPDDEILINIMTKLLTEKQIIIKNKEIFNFLLKRINRTYEEVYNLINKMDKLSLEKKKQLTIPSIKEL,-1.52
14,HMDPEEETLKNMQRMLQDSGPLKKTEFSLLAKSLGIAEKKARKLIDRGRGRFWTVESGEQKNTQLVTPIQ,-0.261
15,HMDPERVVGQTGIVHLRIPARQHNTGKVMIEVQGSLREFDAVSEAEEIPTGTPILIVGRTEEGVFIAQPF,-0.823
16,HMDPGPVLISAQVLDDLEAIRRDGSSNMLDWPAVARLAEVMGMDRTAAWVRTHHREYSAGIFRGFASD,-0.744

row,Sequence,soluble fraction (log2)
1,HMDPHEEELLRQLIRGDIAGYEVLFHKYYPTFFAFIKGMTKETVVAEDITQNIFMKVWLNRERLDAA,-0.535
2,HMDPIATLTPREREVLSLMAEGRSNGAIAAALVVGDGAVEKHVSNIFQKLELTPAEGDHRRVLAVLRWLE,-0.864
3,HMDPLADLFSRIRNAQMRNKKVVTSPASKLRAGILEVLAKEGYIRGYAMTQHASGKNELDIELN,-0.0916
4,HMDPNAITSAQVTKLQVLANEKGFAERQARLTMWAEVIGRNVGTANELTKAEAHKLIEHMDALPV,-0.162
5,HMDPNFKYIIRIANSDVSGEQKLAYALTSIRGIGERTSNAIIQKLGLDSTQLAGKLTDKNVEDIESA,-0.0403
6,HMDPPQEVWDLTRSYLDSMNRPVHGHKSPQETYLRQVKSHRLPATALWDYFMAQRFHAVHATSESAA,-0.364
7,HMDPPYKDKNLHELLLKINNLNILKKDSVIILHRHKKQKEIFPSNFKIIEQKQYGISKIIFLTVL,0.217
8,HMDPRTSSLTPQERKVLELVGGGLTNRQIAAEMFLAEKTVKNYVSSLLAKLGFERRTQAAVFIASPAF,-0.0756
9,HMDPSKLVEVQEPVSMKALSEGLGIKVTELIATFAFKLKIGGKNINSMLSNDEVELVALDLERNIKVV,-0.0335
10,HMDPTEPLFVGVVTAEPYLNIREYPTTQSKDLGDLFPGMHVNVYEIVPNWYRIDDGWVASAWVKRDWGGG,-0.314
11,HMDPTIRRGELIDAASRLFLSKGYAATSVRDILDEVGNRTASPSVFYYYFKSKEEIYQAVLRRHSE,-0.485
12,HMDPTVSGQTGSVVREIRPGVPGEVELSVPLYGIRRWQAMADGILAEGTRVTVIQAEGVRLSVRPV,-0.251
13,HMDPTVTFIVQVNGRVRDKITLSSDISENEAKNVALESPKITPHISGKSLSRVIFVPGKLINLVV,0.162
14,HMDPVATLTPREREVLELMAEGRTNAGIAEAMVVTEGAVEKHIQRIFAKLGLHADGGVHRRVAAVLALLG,-0.872
15,HMDQDIILHKVQPGDTLSKILLHYHSHQDRNKLQGLIAESMTANPFIKNPDLIYPGQLIQVPVPA,0.124
